Results from publication PMC1807957.

T1: POLγB-RKK (UniProt Q9UHN1 26-485, R363A;K364A;K365A)
T1 sequence: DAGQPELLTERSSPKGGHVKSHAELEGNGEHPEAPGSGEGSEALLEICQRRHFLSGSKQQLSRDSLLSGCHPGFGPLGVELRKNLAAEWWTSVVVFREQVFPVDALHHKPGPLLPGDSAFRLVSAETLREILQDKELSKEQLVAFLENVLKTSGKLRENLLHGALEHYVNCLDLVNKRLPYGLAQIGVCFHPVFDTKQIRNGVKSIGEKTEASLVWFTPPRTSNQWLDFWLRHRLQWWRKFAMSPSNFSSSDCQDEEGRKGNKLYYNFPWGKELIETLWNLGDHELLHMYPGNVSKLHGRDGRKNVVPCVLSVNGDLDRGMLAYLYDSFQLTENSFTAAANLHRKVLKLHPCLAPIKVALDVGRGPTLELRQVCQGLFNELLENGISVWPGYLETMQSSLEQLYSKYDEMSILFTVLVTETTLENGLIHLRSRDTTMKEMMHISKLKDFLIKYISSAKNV

T2: POLγB wild type (accessory subunit of DNA polymerase γ) (UniProt Q9UHN1 26-485)
T2 sequence: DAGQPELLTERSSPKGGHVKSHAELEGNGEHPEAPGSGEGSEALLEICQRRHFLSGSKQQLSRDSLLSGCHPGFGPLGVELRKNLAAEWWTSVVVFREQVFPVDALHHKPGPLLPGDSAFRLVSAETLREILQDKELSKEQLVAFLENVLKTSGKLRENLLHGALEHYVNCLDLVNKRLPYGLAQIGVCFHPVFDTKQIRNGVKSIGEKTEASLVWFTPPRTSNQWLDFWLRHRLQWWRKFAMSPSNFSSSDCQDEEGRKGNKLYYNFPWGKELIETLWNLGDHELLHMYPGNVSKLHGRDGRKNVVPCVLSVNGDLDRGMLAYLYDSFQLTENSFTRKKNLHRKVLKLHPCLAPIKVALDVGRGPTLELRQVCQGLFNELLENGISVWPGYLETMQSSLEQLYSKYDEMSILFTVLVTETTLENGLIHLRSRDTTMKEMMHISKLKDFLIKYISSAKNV

T3: POLγB-VV (UniProt Q9UHN1 26-485, V119A;V125A)
T3 sequence: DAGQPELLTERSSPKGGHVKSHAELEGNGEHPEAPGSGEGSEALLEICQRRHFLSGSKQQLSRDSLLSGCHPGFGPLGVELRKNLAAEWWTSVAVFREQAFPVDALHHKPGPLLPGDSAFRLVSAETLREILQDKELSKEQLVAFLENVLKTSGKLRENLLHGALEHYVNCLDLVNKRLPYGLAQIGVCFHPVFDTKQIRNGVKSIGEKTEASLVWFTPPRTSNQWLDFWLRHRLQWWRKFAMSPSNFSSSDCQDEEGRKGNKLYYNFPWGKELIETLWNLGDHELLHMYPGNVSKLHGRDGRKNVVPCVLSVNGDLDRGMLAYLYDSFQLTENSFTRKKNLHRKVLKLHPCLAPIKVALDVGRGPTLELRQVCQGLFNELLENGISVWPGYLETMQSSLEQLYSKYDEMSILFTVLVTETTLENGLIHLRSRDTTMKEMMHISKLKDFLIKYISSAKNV

T4: POLγB-RK (UniProt Q9UHN1 26-485, R328A;K329A)
T4 sequence: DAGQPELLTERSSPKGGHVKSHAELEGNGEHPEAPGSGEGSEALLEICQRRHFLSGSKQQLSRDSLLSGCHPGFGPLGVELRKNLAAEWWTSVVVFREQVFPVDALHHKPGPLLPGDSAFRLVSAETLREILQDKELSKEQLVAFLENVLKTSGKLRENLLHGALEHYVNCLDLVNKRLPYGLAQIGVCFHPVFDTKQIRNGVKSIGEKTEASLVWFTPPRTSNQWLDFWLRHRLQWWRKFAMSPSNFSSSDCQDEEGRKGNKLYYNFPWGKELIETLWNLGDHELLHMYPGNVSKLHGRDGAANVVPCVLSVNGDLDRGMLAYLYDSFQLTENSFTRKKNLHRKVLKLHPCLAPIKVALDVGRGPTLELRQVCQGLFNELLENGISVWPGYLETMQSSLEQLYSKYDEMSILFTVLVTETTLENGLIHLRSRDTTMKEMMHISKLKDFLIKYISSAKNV


Tests used:
[1] = biological target: POLγA (catalytic subunit of DNA polymerase γ);POLγB-VV (Homo sapiens?;Homo sapiens?, UniProt P54098;Q9UHN1 26-1239;26-485, |V119A;V125A); assay: EMSA supershift
[2] = biological target: POLγA (catalytic subunit of DNA polymerase γ);POLγB-RKK (Homo sapiens?;Homo sapiens?, UniProt P54098;Q9UHN1 26-1239;26-485, |R363A;K364A;K365A); assay: EMSA, competitor challenge
[3] = biological target: POLγA (catalytic subunit of DNA polymerase γ);POLγB-RK (Homo sapiens?;Homo sapiens?, UniProt P54098;Q9UHN1 26-1239;26-485, |R328A;K329A); assay: EMSA, competitor challenge
[4] = biological target: POLγA (catalytic subunit of DNA polymerase γ) (UniProt P54098 26-1239); assay: EMSA
POLγB-RKK = biological target: T1, POLγB-RKK; assay: EMSA
[5] = biological target: T2, POLγB wild type (accessory subunit of …); assay: EMSA
POLγB-VV = biological target: T3, POLγB-VV; assay: EMSA
POLγB-RK = biological target: T4, POLγB-RK; assay: EMSA

POLγA (catalytic subunit of DNA polymerase γ);POLγB-RK, sequence (P54098 26-1239, stated change not applied, one chain of several): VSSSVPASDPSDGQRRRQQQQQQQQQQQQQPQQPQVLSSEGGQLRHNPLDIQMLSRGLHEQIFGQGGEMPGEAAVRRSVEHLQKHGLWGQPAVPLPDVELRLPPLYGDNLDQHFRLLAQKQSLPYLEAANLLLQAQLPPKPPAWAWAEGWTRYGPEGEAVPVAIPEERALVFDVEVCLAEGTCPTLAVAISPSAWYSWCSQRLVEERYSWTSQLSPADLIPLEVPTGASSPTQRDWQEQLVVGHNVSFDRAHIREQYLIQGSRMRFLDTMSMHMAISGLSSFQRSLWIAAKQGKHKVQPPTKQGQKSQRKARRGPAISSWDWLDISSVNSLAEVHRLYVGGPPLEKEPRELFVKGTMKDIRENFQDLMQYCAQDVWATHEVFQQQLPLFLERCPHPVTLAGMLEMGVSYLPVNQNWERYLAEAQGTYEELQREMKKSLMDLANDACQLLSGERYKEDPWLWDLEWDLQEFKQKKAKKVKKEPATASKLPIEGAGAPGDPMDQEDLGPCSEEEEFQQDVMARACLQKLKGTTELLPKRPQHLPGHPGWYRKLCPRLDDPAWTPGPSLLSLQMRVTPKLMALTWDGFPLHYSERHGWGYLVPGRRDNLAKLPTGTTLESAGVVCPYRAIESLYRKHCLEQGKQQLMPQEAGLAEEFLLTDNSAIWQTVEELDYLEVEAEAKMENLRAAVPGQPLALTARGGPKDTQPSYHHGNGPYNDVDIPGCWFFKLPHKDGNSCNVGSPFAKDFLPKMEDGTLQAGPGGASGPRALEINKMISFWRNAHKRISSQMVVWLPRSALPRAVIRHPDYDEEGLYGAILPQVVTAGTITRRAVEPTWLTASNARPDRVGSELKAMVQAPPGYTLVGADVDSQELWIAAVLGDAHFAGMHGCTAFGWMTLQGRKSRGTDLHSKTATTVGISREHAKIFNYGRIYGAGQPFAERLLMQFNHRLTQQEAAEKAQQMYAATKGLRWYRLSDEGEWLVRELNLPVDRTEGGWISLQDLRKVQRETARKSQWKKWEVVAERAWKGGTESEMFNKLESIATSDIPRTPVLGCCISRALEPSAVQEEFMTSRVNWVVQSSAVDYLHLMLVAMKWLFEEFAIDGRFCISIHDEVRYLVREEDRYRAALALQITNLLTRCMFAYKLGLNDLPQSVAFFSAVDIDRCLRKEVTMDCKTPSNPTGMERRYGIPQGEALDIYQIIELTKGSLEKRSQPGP
POLγA (catalytic subunit of DNA polymerase γ);POLγB-VV, sequence (P54098 26-1239, stated change not applied, one chain of several): as above
POLγA (catalytic subunit of DNA polymerase γ);POLγB-RKK, sequence (P54098 26-1239, stated change not applied, one chain of several): as above
POLγA (catalytic subunit of DNA polymerase γ), sequence (P54098 26-1239): as the sequence (P54098 26-1239, stated change not applied, one chain of several) above

Binder | binding result [1] | binding result [2] | binding result [3] | binding result [4] | binding result (POLγB-RKK) | binding result [5] | binding result (POLγB-VV) | binding result (POLγB-RK)
primed DNA template (35-mer/20-mer) (mixed) DNA 1: TTTTTTTTTTATCCGGGCTCCTCTAGACTCGACCG DNA 2: CGGTCGAGTCTAGAGGAGCC | binds | binds | binds | binds | – | – | – | –
50-bp dsDNA probe (dsDNA) DNA 1: GGCGTATATCCAAATTAAAAGCATTTTTGATTGCATATATATCATCAGCT DNA 2: AGCTGATGATATATATGCAATCAAAAATGCTTTTAATTTGGATATACGCC | – | – | – | – | no binding | binds | binds | no binding
